Numbering of substitutions follows the chain as printed.
B1: DVD3216 (bispecific antibody, IgG1)
VH: EVQLVESGGGLVQPGGSLRLSCAASGFTFSNYGVEWVRQAPGKGLEWVSGIWADGSTHYADTVKSRFTISRDNSKNTLYLQMNSLRAEDTAVYYCAREWQHGPVAYWGQGTLVTVSSASTKGPEVQLVESGGGLVQPGGSLRLSCAASGFSFSKYWLGWVRQAPGKGLEWVSDIYPGYDYTHYNEKFKDRFTISADTSKNTAYLQMNSLRAEDTAVYYCARSDGSSTYWGQGTLVTVSS
VL: DIQMTQSPSSLSASVGDRVTITCKASQLVSSAVAWYQQKPGKAPKLLIYWASTLHTGVPSRFSGSGSGTDFTLTISSLQPEDFATYYCQQHYRTPFTFGQGTKLEIKRTVAAPSVFIFPPDIQMTQSPSSLSASVGDRVTITCTSSQNIVHSNGNTYLEWYQQKPGKAPKLLIYKVSNRFSGVPSRFSGSGSGTDFTLTISSLQPEDFATYYCFQVSHVPYTFGQGTKVEIKR
B2: DVD3209 (bispecific antibody, IgG1)
VH: EVQLVESGGGLVQPGGSLRLSCAASGFSFSKYWLGWVRQAPGKGLEWVSDIYPGYDYTHYNEKFKDRFTISADTSKNTAYLQMNSLRAEDTAVYYCARSDGSSTYWGQGTLVTVSSASTKGPEVQLVESGGGLVQPGGSLRLSCAASGFTFSNYGVTWVRQAPGKGLEWVSMIWADGSTHYASSVKGRFTISRDNSKNTLYLQMNSLRAEDTAVYYCAREWQHGPVAYWGQGTLVTVSS
VL: DIQMTQSPSSLSASVGDRVTITCTSSQNIVHSNGNTYLEWYQQKPGKAPKLLIYKVSNRFSGVPSRFSGSGSGTDFTLTISSLQPEDFATYYCFQVSHVPYTFGQGTKVEIKRTVAAPDIQMTQSPSSLSASVGDRVTITCRASQLVSSAVAWYQQKPGKAPKLLIYWASARHTGVPSRFSGSGSGTDFTLTISSLQPEDFATYYCQQHYKTPFTFGQGTKLEIKR
B3: DVD3212 (bispecific antibody, IgG1)
VH: EVQLVESGGGLVQPGGSLRLSCAASGFSFSKYWLGWVRQAPGKGLEWVSDIYPGYDYTHYNEKFKDRFTISADTSKNTAYLQMNSLRAEDTAVYYCARSDGSSTYWGQGTLVTVSSASTKGPSVFPLAPEVQLVESGGGLVQPGGSLRLSCAASGFTFSNYGVTWVRQAPGKGLEWVSMIWADGSTHYASSVKGRFTISRDNSKNTLYLQMNSLRAEDTAVYYCAREWQHGPVAYWGQGTLVTVSS
VL: B2 VL
B4: DVD3211 (bispecific antibody, IgG1)
VH: B2 VH
VL: DIQMTQSPSSLSASVGDRVTITCTSSQNIVHSNGNTYLEWYQQKPGKAPKLLIYKVSNRFSGVPSRFSGSGSGTDFTLTISSLQPEDFATYYCFQVSHVPYTFGQGTKVEIKRTVAAPSVFIFPPDIQMTQSPSSLSASVGDRVTITCRASQLVSSAVAWYQQKPGKAPKLLIYWASARHTGVPSRFSGSGSGTDFTLTISSLQPEDFATYYCQQHYKTPFTFGQGTKLEIKR
B5: DVD3207 (bispecific antibody, IgG1)
VH: EVQLVESGGGLVQPGGSLRLSCAASGFTFSNYGVTWVRQAPGKGLEWVSMIWADGSTHYASSVKGRFTISRDNSKNTLYLQMNSLRAEDTAVYYCAREWQHGPVAYWGQGTLVTVSSASTKGPSVFPLAPEVQLVESGGGLVQPGGSLRLSCAASGFSFSKYWLGWVRQAPGKGLEWVSDIYPGYDYTHYNEKFKDRFTISADTSKNTAYLQMNSLRAEDTAVYYCARSDGSSTYWGQGTLVTVSS
VL: DIQMTQSPSSLSASVGDRVTITCRASQLVSSAVAWYQQKPGKAPKLLIYWASARHTGVPSRFSGSGSGTDFTLTISSLQPEDFATYYCQQHYKTPFTFGQGTKLEIKRTVAAPDIQMTQSPSSLSASVGDRVTITCTSSQNIVHSNGNTYLEWYQQKPGKAPKLLIYKVSNRFSGVPSRFSGSGSGTDFTLTISSLQPEDFATYYCFQVSHVPYTFGQGTKVEIKR
B6: DVD3214 (bispecific antibody, IgG1)
VH: B1 VH
VL: B5 VL with R24K, A53T, R54L, K93R
B7: DVD3217 (bispecific antibody, IgG1)
VH: B5 VH with T35E, M50G, S61D, S62T, G65S
VL: B5 VL with R24K, A53T, R54L, K93R
B8: DVD3208 (bispecific antibody, IgG1)
VH: EVQLVESGGGLVQPGGSLRLSCAASGFSFSKYWLGWVRQAPGKGLEWVSDIYPGYDYTHYNEKFKDRFTISADTSKNTAYLQMNSLRAEDTAVYYCARSDGSSTYWGQGTLVTVSSGGGGSGGGGSEVQLVESGGGLVQPGGSLRLSCAASGFTFSNYGVTWVRQAPGKGLEWVSMIWADGSTHYASSVKGRFTISRDNSKNTLYLQMNSLRAEDTAVYYCAREWQHGPVAYWGQGTLVTVSS
VL: DIQMTQSPSSLSASVGDRVTITCTSSQNIVHSNGNTYLEWYQQKPGKAPKLLIYKVSNRFSGVPSRFSGSGSGTDFTLTISSLQPEDFATYYCFQVSHVPYTFGQGTKVEIKRGGSGGGGSGDIQMTQSPSSLSASVGDRVTITCRASQLVSSAVAWYQQKPGKAPKLLIYWASARHTGVPSRFSGSGSGTDFTLTISSLQPEDFATYYCQQHYKTPFTFGQGTKLEIKR
B9: DVD3213 (bispecific antibody, IgG1)
VH: EVQLVESGGGLVQPGGSLRLSCAASGFTFSNYGVEWVRQAPGKGLEWVSGIWADGSTHYADTVKSRFTISRDNSKNTLYLQMNSLRAEDTAVYYCAREWQHGPVAYWGQGTLVTVSSGGGGSGGGGSEVQLVESGGGLVQPGGSLRLSCAASGFSFSKYWLGWVRQAPGKGLEWVSDIYPGYDYTHYNEKFKDRFTISADTSKNTAYLQMNSLRAEDTAVYYCARSDGSSTYWGQGTLVTVSS
VL: DIQMTQSPSSLSASVGDRVTITCKASQLVSSAVAWYQQKPGKAPKLLIYWASTLHTGVPSRFSGSGSGTDFTLTISSLQPEDFATYYCQQHYRTPFTFGQGTKLEIKRGGSGGGGSGDIQMTQSPSSLSASVGDRVTITCTSSQNIVHSNGNTYLEWYQQKPGKAPKLLIYKVSNRFSGVPSRFSGSGSGTDFTLTISSLQPEDFATYYCFQVSHVPYTFGQGTKVEIKR

molecular target: Recombinant Human TNF-α/TNFSF1A (human, UniProt P01375 77-233); test: cell-based or functional assay
Sequence (P01375 77-233 limits assumed): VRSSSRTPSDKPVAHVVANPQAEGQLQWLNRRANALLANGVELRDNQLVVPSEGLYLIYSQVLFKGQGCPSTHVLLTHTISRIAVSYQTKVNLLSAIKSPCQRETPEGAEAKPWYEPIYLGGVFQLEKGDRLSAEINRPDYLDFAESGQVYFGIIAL

N-Terminal VD huTNFα Neutralization Assay IC50 [nM]	C-Terminal VD huTNFα Neutralization Assay IC50 [nM]	Binder
0.022		B1
	0.536	B2
	0.039	B3
	0.014	B4
0.005		B5
0.02		B6
0.008		B7
	0.172	B8
0.01		B9
